Starred links: 1 amine or outer side, 2 acyl side, 3 side chain; linkers in the order of their positions; H or OH if unused. Non-standard residues stand in square brackets, D forms with d. Residues, ends and D or L forms follow the SMILES beside them. No end group written: not given here. Asuha = 2-aminosuberic acid hydroxamate, O=C(CCCCC[C@H](N[*:1])C(=O)[*:2])NO[*:3]
Columns and labels:
Assay in all cases: Recombinant HDAC µSPOT microarray binding assay;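 on Bottom (Value): Cellulose-bound peptide spots on slides incubated with six HDAC enzyme concentrations, binding intensity read, four-parameter variable-slope fit, EC50 is enzyme concentration giving half-maximal binding, in HEPES buffer pH 7.4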;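 on Bottom (dose-response curve fit): peptide spots on cellulose slides incubated with rising HDAC enzyme concentrations, imaged together, four-parameter logistic fit, EC50 is enzyme concentration giving half-maximal binding signal, two experiments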;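 on Bottom (dose-response fit): slides with spotted peptides incubated with six HDAC concentrations in HEPES buffer pH 7.4, spot intensities fitted by four-parameter logistic, EC50 as enzyme concentration giving half-maximal binding signal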;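 on Bottom: relative spot intensity from the six enzyme-concentration slides imaged together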;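 on HillSlope (Value): Cellulose-bound peptide spots on slides incubated with six HDAC enzyme concentrations, binding intensity read, four-parameter variable-slope fit, EC50 is enzyme concentration giving half-maximal binding, in HEPES buffer pH 7.4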;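 on LogEC50 (M): peptide spots on cellulose slides incubated with rising HDAC enzyme concentrations, imaged together, four-parameter logistic fit, EC50 is enzyme concentration giving half-maximal binding signal, two experiments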;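 on Top (Value): Cellulose-bound peptide spots on slides incubated with six HDAC enzyme concentrations, binding intensity read, four-parameter variable-slope fit, EC50 is enzyme concentration giving half-maximal binding, in HEPES buffer pH 7.4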;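 on Top (dose-response curve fit): peptide spots on cellulose slides incubated with rising HDAC enzyme concentrations, imaged together, four-parameter logistic fit, EC50 is enzyme concentration giving half-maximal binding signal, two experiments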;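 on Top (dose-response fit): slides with spotted peptides incubated with six HDAC concentrations in HEPES buffer pH 7.4, spot intensities fitted by four-parameter logistic, EC50 as enzyme concentration giving half-maximal binding signal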;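 on Top: relative spot intensity from the six enzyme-concentration slides imaged together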
HDAC8 = target: T1, HDAC8 (Homo sapiens, UniProt Q9BY41);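 further: peptide µSPOT slides incubated with varying HDAC enzyme concentrations, imaged signal intensity fitted by four-parameter variable-slope regression, EC50 is enzyme concentration giving half-maximal binding, pH 7.4 HEPES buffer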;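 on Bottom: relative spot intensity from the six enzyme-concentration slides imaged together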;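 on Top: relative spot intensity from the six enzyme-concentration slides imaged together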
T1 construct: HDAC8 (full length, C-terminal His tag, BPS Bioscience, cat. #: 50008); purchased BPS Bioscience 50008
T1 sequence (Q9BY41 1-377): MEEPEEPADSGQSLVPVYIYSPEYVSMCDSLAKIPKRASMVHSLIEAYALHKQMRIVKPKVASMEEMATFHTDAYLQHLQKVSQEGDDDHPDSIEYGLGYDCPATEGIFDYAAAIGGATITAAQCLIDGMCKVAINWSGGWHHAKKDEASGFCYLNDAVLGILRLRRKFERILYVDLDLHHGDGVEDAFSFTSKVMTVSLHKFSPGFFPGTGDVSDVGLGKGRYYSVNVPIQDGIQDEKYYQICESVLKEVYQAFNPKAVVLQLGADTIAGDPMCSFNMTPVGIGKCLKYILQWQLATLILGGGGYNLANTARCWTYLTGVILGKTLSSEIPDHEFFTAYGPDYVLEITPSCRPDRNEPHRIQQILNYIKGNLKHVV

HDAC1 = target: T2, HDAC1 (Homo sapiens, UniProt Q13547); conditions: µSPOT microarray; for Bottom (dose-response fit): fitted bottom plateau of the binding curve; for Top (dose-response fit): fitted top plateau of the binding curve;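 on Top: relative spot intensity from the six enzyme-concentration slides imaged together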;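 on all read-outs here: slides with spotted peptides incubated with six HDAC concentrations in HEPES buffer pH 7.4, spot intensities fitted by four-parameter logistic, EC50 as enzyme concentration giving half-maximal binding signal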
T2 construct: HDAC1 (full length, C-terminal His tag, C-terminal FLAG tag, BPS Bioscience, cat. #: 50051); FLAG (C); purchased BPS Bioscience 50051
Method: (§1) Experiments were performed twice, data were obtained with Array Analyze software (Active Motif), and data analysis and representation were performed with the GraphPad Prism 7 software. Outliers were curated manually and data were fitted to nonlinear regression [log(agonist) vs. response—variable slope (four parameters)]. […] Non-sigmoidal curves were denoted as not determined (N.D.) The pEC50 values were determined as the concentration of HDAC enzyme required for half-maximal binding signal.

HDAC2 = target: T3, HDAC2 (Homo sapiens, UniProt Q92769); conditions: for Bottom (Value) / Top (Value) / HillSlope (Value): HDAC2 microarray dose-response curve fit, X = Asuha, sheet Fig. 3 HDAC2; for Bottom (Value): bottom plateau; for Top (Value): top plateau;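 on Top: relative spot intensity from the six enzyme-concentration slides imaged together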;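 on all read-outs here: Cellulose-bound peptide spots on slides incubated with six HDAC enzyme concentrations, binding intensity read, four-parameter variable-slope fit, EC50 is enzyme concentration giving half-maximal binding, in HEPES buffer pH 7.4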
T3 construct: HDAC2 (full length, C-terminal His tag, BPS Bioscience, cat. #: 50002); purchased BPS Bioscience 50002
Method: as §1

HDAC3/NCoR2 = target: T4, HDAC3/NCoR2 (Homo sapiens, UniProt O15379); conditions: for Bottom (dose-response curve fit): fitted bottom plateau of binding signal; for Top (dose-response curve fit): fitted top plateau of binding signal;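 on Top: relative spot intensity from the six enzyme-concentration slides imaged together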;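 on all read-outs here: peptide spots on cellulose slides incubated with rising HDAC enzyme concentrations, imaged together, four-parameter logistic fit, EC50 is enzyme concentration giving half-maximal binding signal, two experiments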
T4 construct: HDAC3/NCoR2 (full length, C-terminal His tag, NCoR2 N-terminal GST tag); purchased BPS Bioscience 50003

[1] = HDAC8 µSPOT microarray dose-response fit, Bottom Value, X = Asuha, sheet Fig. 3 HDAC8
[2] = HDAC8 µSPOT microarray dose-response fit, HillSlope Value, X = Asuha, sheet Fig. 3 HDAC8
[3] = HDAC8 µSPOT microarray dose-response fit, Top Value, X = Asuha, sheet Fig. 3 HDAC8
[4] = recombinant HDAC1, Fig. 3, X = Asuha, Hill slope of the binding curve
[5] = recombinant HDAC1, Fig. 3, X = Asuha
[6] = HDAC3 µSPOT microarray, Fig. 3, Hill slope of dose-response fit, X = Asuha
[7] = HDAC3 µSPOT microarray, Fig. 3, X = Asuha
[8] = dose-response fit parameter, µSPOT microarray, H4 K12X (X = Asuha) peptides, HDAC8
[9] = dose-response fit parameter, H4 K12X (X = Asuha) peptides, HDAC1
[10] = dose-response fit parameter, µSPOT microarray, H4 K12X (X = Asuha) peptides, HDAC2
[11] = dose-response fit parameter, µSPOT microarray, H4 K12X (X = Asuha) peptides, HDAC3

T2 sequence (Q13547 whole entry): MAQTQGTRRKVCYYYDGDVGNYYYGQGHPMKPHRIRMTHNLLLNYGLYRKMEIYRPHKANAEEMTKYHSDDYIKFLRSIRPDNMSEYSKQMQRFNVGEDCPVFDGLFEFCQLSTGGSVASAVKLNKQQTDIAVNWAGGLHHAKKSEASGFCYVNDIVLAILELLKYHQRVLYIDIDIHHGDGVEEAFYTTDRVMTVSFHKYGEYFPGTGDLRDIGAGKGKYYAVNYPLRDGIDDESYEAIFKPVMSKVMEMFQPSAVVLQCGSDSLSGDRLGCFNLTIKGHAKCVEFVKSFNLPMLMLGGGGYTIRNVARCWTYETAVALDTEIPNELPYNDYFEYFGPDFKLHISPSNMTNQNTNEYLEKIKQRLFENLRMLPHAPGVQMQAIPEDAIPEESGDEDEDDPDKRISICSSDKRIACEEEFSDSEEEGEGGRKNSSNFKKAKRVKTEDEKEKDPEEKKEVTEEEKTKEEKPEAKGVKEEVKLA
T3 sequence (Q92769 whole entry): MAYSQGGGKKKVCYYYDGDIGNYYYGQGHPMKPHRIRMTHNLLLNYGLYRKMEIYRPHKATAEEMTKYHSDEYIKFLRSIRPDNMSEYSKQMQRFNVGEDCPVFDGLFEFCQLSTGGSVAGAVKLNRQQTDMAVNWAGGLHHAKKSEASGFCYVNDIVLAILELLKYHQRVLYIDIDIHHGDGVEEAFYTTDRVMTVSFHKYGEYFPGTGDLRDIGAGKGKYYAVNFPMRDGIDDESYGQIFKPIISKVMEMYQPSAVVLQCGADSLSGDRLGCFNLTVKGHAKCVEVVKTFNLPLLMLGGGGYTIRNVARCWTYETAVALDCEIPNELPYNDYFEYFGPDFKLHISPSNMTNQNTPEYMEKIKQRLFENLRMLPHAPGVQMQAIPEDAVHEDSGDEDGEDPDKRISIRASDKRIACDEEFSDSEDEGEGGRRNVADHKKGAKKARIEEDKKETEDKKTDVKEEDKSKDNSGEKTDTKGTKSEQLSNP
T4 sequence (O15379 whole entry): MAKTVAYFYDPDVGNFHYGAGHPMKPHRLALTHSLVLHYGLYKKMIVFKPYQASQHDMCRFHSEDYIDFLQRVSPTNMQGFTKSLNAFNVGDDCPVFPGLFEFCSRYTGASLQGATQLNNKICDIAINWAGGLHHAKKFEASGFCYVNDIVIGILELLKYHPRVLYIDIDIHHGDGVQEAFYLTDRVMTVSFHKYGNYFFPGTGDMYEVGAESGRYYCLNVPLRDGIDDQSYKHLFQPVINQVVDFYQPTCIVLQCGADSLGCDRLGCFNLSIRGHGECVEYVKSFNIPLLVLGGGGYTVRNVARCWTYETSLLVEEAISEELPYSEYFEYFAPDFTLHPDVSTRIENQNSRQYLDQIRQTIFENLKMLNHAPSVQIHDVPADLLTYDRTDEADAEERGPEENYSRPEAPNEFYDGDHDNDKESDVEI
T4 sequence (Q9Y618 389-480 partner limits assumed): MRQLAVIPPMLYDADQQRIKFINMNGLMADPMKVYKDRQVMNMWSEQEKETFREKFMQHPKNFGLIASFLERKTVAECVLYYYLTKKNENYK

Compound | Bottom (HDAC8; [1]) | HillSlope (HDAC8; [2]) | Top (HDAC8; [3]) | HillSlope (HDAC1; [4]) | Bottom (dose-response fit) (HDAC1; [5]) | Top (dose-response fit) (HDAC1; [5]) | Bottom (Value) (HDAC2) | Top (Value) (HDAC2) | HillSlope (Value) (HDAC2) | HillSlope (HDAC3/NCoR2; [6]) | Bottom (dose-response curve fit) (HDAC3/NCoR2; [7]) | Top (dose-response curve fit) (HDAC3/NCoR2; [7]) | further results
CC[C@H](C)[C@H](NC(=O)[C@H](CCC(=O)O)NC(=O)[C@H](CCCNC(=N)N)NC(=O)[C@H](CO)NC(=O)[C@@H](NC(=O)[C@@H](NC(=O)[C@@H](NC(C)=O)[C@@H](C)O)[C@@H](C)CC)[C@@H](C)O)C(=O)N[C@@H](CCC(N)=O)C(=O)N[C@H](C(=O)N[C@@H](C)C(=O)N[C@H](C(=O)N[C@@H](CCCNC(=N)N)C(=O)N[C@@H](CC(C)C)C(=O)N[C@@H](CC(C)C)C(=O)N[C@@H](CC(C)C)C(=O)N1CCC[C@H]1C(N)=O)C(C)C)[C@@H](C)O [H2B 88-103] (Ac-TITSREIQTAVRLLLP-NH2) | 0.03 | 10.85 | 0.09 | 1.19 | 0.05 | 1.11 | 0.04 | 0.21 | 1.75 | 1.33 | 0.01 | 0.74 | 
P10 (KGLG[Asuha]GGAK) |  |  |  |  |  |  |  |  |  |  |  |  | Bottom (HDAC8; [8]): 0.03; HillSlope (HDAC8; [8]): 10.49; Top (HDAC8; [8]): 0.13; Bottom (HDAC1; [9]): 0.02; HillSlope (HDAC1; [9]): 0.6; Top (HDAC1; [9]): 1.69; Bottom (HDAC2; [10]): 0.03; HillSlope (HDAC2; [10]): 1.44; Top (HDAC2; [10]): 0.39; Bottom (HDAC3/NCoR2; [11]): 0.06; HillSlope (HDAC3/NCoR2; [11]): 4.03; Top (HDAC3/NCoR2; [11]): 0.95; LogEC50 (M) (HDAC3/NCoR2; log of EC50 in M, dose-response fit, µSPOT microarray, H4 K12X (X = Asuha) peptides, HDAC3): -8.87 M
H2B 91-106 (SREIQTAVRLLLPGEL; UniProt P62807 92-107, looked up, fragment) | 0.04 | 6.48 | 0.09 | 1.35 | 0.04 | 1.07 | 0.03 | 44.03 | 0.48 | 1.45 | 0.01 | 0.55 | 
H2A 40-55 (AERVGAGAPVYLAAVL; UniProt P0C0S8 41-56, looked up, fragment) | 0.01 | 2.67 | 0.08 | 0.82 | 0.02 | 5.13 | -0.05 | 0.06 | 0.08 | 1.44 | 0 | 0.3 | 
H2A 46-61 (GAPVYLAAVLEYLTAE; UniProt P0C0S8 47-62, looked up, fragment) | 0.02 | 0.58 | 21.03 | 1.25 | 0.02 | 0.24 | 0.01 | 27.24 | 0.62 | 1.43 | 0.01 | 0.51 | 
H2A 37-52 (GNYSERVGAGAPVYLA; UniProt P04908 38-53, looked up, fragment) | 0.01 | 7.44 | 0.07 | 0.92 | 0.01 | 6.54 | 0.01 | 3.9 | 0.79 | 0.78 | 0 | 0.79 | 
H2B 61-76 (IMNSFVNDIFERIAGE; UniProt P62807 62-77, looked up, fragment) | -0.5 | 0.02 | 0.56 | 1.29 | 0.03 | 1.15 | 0.02 | 0.12 | 1.69 | 1.99 | 0.01 | 0.17 | 
H2B 67-82 (NDIFERIAGEASRLAH; UniProt P06899 68-83, looked up, fragment) | 0.03 | 0.69 | 4.21 | 1.51 | 0.04 | 1.04 | 0.02 | 6.33 | 0.44 | 1.68 | 0.01 | 0.39 | 
H2B 58-73 (AMGIMNSFVNDIFERI; UniProt P06899 59-74, looked up, fragment) | 0.01 | 0.19 | 6.07 | 0.92 | 0.02 | 1.87 | 0.03 | 0.16 | 2.23 | 1.96 | 0.02 | 0.22 | 
H2A 19-34 (SRAGLQFPVGRVHRLL; UniProt P04908 20-35, looked up, fragment) | 0.05 | 8.22 | 0.14 | 0.75 | 0.02 | 2.31 | 0.04 | 76.12 | 0.81 | 1.37 | 0.02 | 0.67 | 
H2A 49-64 (VYLAAVLEYLTAEILE; UniProt P0C0S8 50-65, looked up, fragment) | 0.02 | 0.49 | 6.68 | 1.26 | 0.01 | 0.2 | 0.02 | 0.44 | 0.89 | 1.38 | 0 | 0.57 | 
H2A 55-70 (LEYLTAEILELAGNAA; UniProt P0C0S8 56-71, looked up, fragment) | 0.02 | 0.59 | 3.05 | 1.43 | 0.02 | 0.27 | 0.01 | 2.34 | 0.64 | 1.26 | 0 | 0.64 | 
H2B 64-79 (SFVNDIFERIAGEASR; UniProt P62807 65-80, looked up, fragment) | 0.02 | 0.72 | 1.17 | 1.09 | 0.03 | 1.21 | 0.01 | 12.73 | 0.33 | 1.87 | 0.01 | 0.22 | 
CC[C@H](C)[C@H](NC(=O)[C@H](C)NC(=O)[C@H](CC(C)C)NC(=O)[C@H](CCC(N)=O)NC(=O)[C@H](CC(C)C)NC(=O)[C@H](Cc1c[nH]cn1)NC(=O)[C@H](CCCNC(=N)N)NC(=O)[C@@H]1CCCN1C(=O)[C@@H](NC(=O)[C@@H](NC(=O)[C@H](CCCNC(=N)N)NC(=O)[C@@H](NC(C)=O)[C@@H](C)O)[C@@H](C)CC)[C@@H](C)CC)C(=O)N[C@@H](CCCNC(=N)N)C(=O)N[C@@H](CC(N)=O)C(=O)N[C@@H](CC(=O)O)C(=O)N[C@@H](CCC(=O)O)C(N)=O [H2A 76-91] (Ac-TRIIPRHLQLAIRNDE-NH2) | 0.03 | 7.33 | 0.15 | 0.92 | 0.02 | 2.64 | 0.03 | 73.18 | 0.93 | 1.12 | 0.01 | 1.3 | 

Source: article PMC7782793, “Hydroxamic acid-modified peptide microarrays for profiling isozyme-selective interactions and inhibition of histone deacetylases” (Nature Communications, 2021)
